Publication PMC4267786

Biological target: native apolipoprotein D (apoD) from human plasma (human) (UniProt P05090)
Assay: ELISA; detergent-free dual-specific ELISA with purified components; capture anti-apoD D544, detection anti-apoB LDL20-biotin; LDL 333 ng/ml (or VLDL 1000 ng/ml, also with detergent) alone or with apoD 100 ng/ml, recombinant apoD 100 ng/ml, HDL2 or HDL3 1000 ng/ml; read as absorbance relative to LDL alone

Chain of UniProt P05090 (P05090 21-189): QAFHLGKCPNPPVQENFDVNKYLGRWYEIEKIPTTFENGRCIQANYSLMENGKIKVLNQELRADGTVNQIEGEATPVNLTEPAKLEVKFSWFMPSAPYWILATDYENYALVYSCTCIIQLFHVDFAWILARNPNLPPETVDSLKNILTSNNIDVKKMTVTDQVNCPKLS

fold enhancement of LDL binding against LDL alone: 6 fold
Substance: purified low density lipoprotein (LDL) (complex)
